# Measured values from the DeepSol protein solubility set.
# Assay: soluble on expression in E. coli; label from the status in PepcDB or PDB records
row,Sequence,soluble on expression in E. coli
1,MGSDKIHHHHHHMIVPQEIYHPLYEDKEKFIILITGGRGSGKSFNASTFIERLTFELTPVEKIVHQILYTRYTMVSAGMSIIPEMMEKIELDGTTKYFKTTKTDIVNKMTKSRIMFRGIKTSSGNQTAKLKSIQGITTFVCDEAEEWTNEEEFDKIMLSIRKKGIQNRIIIIMNPCDSNHFIYKKYIENTHKLVEIDGVQVQISTHPNVLHIHTTYLDNLENLSPEFLKEVEDMKVNNPEKYAHVVIGRWADVAEGAVFKKWGIVDEFPAWAKKVAIGQDFGYTHDPSASIRCGIVDNALYLDEIDYRTGLLSSDIIKSLRPWGLKVIADSADPRLIQEIHNGGVKIYAVEKGAGSVNAGLDKMQGMEMYITKRSYNLQREYRKYVWAKDKDGNYINEPEDHDNHGIDAVRYYVLGELLGKIQKPKDLTGIFTH,not soluble
2,MGSDKIHHHHHHMKAVNENLKEQFVKRNKLAICATLRELKKNDTSLMVHHSHGQFISKILDVVPDNNLFVFDLGGIERENSRALYAGALSFIAEPAGAKVEFNAEIAKTVNYDGLPAFSAQIPELLYLIQRRTYFRINTPLWPPLTCRGELPDDSVFTFTIKDLSLGGLSLYTDRDTTGLLTEGDIIKSVEMDLADHGFFCVDLQFVGQAMVKIVDNKGELKLTQRLSFKFPSLNAAQERDLQQVIFELEKLQNEKKKRFQEL,not soluble
3,MGSDKIHHHHHHMKDKSNSPLIKELKLANLLSFGSETTDIQLNSLNVVVGPNGSGKSNLIDAISLLQASPSDLAVPIRKGGGIRDWLWRGMELPTASMEVITPSAPHGNKDLRYYLAFTALKQRFELIDECLETKEPYTNHSEPYFYYRYQNGNPVINNIKDQKRMLKREDIDPEQSILSQRKDPDQYPEITWLGKQFAAIRIYREWNFGRKALLRQPQGADAPNDYLAEDCSNLGLVLNKLRTNYKVKKKVLDLLSQFYEGIDDFDVIVEGGTVQLFLQEGEFMIPATRLSDGTLRFLCLLAILCNPDPPPLICIEEPELGIHSDIIPVIGQLLKDASKMTQLIVTTHSEILVDELTDMPEAVLVCEKHEGMTRFRRLEKDLLKDWLERYSLGELWRKGEIGGTRW,not soluble
4,MGSDKIHHHHHHMKETVYFGTYTRRTSQGIYKADFDTETGQLSNLELFAAEPSPTYLAFDQHQHLYTVGSQDDKGGIAAYQTDGTVLNHVVEEGAPHCYVAVDEKRDLVYAANYHKGQVLVYKRQEDGSLLLSDMDQHSGQGPHENQASPHVHYTDLTPDHYLVTCDLGTDQVITYDLDQEGKLSKLYTYHSKPGAGSRHIIFHNHYKIAYLICELNSTIEVLIYDGVGEFERMQVISTLPEAYEGFNGTAAIHLSKDGKYLYASNRGHDSIAVYTILADGSLELLEIVPTHGQTPRDFDLTPDQKFLIVVHQDSDNATVFKRNCDNGRLAELSNDFHVPEAVCIRFAP,not soluble
5,MGSDKIHHHHHHMKFAVSSKGDQVSDTLKSKIQAYLLDFDMELDENEPEIVISVGGDGTLLYAFHRYSDRLDKTAFVGVHTGHLGFYADWVPHEIEKLVLAIAKTPYHTVEYPLLEVIVTYHENEREERYLALNECTIKSIEGSLVADVEIKGQLFETFRGDGLCLSTPSGSTAYNKALGGAIIHPSIRAIQLAEMASINNRVFRTVGSPLLLPSHHDCMIKPRNEVDFQVTIDHLTLLHKDVKSIRCQVASEKVRFARFRPFPFWKRVQDSFIGKGE,not soluble
6,MGSDKIHHHHHHMKFKTVGNPNGPKILLIHPMFATSECFVNLVEYLKEDYFVITPTLDGHDINENSIFLSVEDEGNKVLAYLKDNSIKELDFMLGTSLGAIIAFEIYKRNEIRINKVYLDGGPFFKFGALLQKVAAKKFCNICSEVRQNPQKAINKIERLFKGLGNEMCEVACHITEESIKNLAHACYSFTLPNLKPVEQKSVVFLYGTKEPARFCIFRLRKYKYSRIIKKNGFSHCGYLLSYPKEYAEMLKENTQ,not soluble
7,MGSDKIHHHHHHMKFLRSLAFLNLQKKFKNKFNINILDYIKPKPTKICFKDFENKYLTAKQKEVLFDIESNNYSKVIFSGGIASGKTFLASYLLVKKLIENKSFYEQDTNNFIIGNSIGLLMTNTVKQIEKICSLLGIDYEKKKSGQSFCKIAGLKLNIYGGKNRDAFSKIRGGNSAIIYVNEATVIHRETLLEVIKRLRKGKEIIIFDTNPESPAHYFKTDYIENTDVFKTYNFTTYDNPLNSADFIQTQEKLYRRFPAYRARVLYGEWILNESTLFNEMIFNQDYEFKSPIMYIDPAFSVGGDNTAICVLERTFEKFYAYIYQDQKPVSDSLMLASIQVLIENFNVNTVYIEERDSTKGDGILTKTILFLRNKSSHYFKVAPIKPLSNKFKRICALIPLFESRKIEFLKIISKNVISDIYSYKGDGKTKDDALDSLANAYLLLTLNYKEKLFHFGRFKYL,not soluble
8,MGSDKIHHHHHHMKFNTTIKRLQEAVNKVILAVPAKSLDARFDNINLTLENGMLTMFATDGELSITTNCDVASTDKGNIAIRARTLQDFLRSMYETDVTFDIERQSIGELGTIHIATDKGRYRIPCTFTTKPESQKRNFDLSIELQQNELQDMIHKTLFACSVDGMRPAMMGVLFEFDEEYITAVSTDGHRLVRCRKKPGVTVAEKQKIVVPARVLSIIQRMLTNEEVKMTIDSERRNVKFKTATMELESALIVEPYPNYEAVIPVENEKQLVTDRSQLHDSVKRVGRFSSIGDLKISAQDSQIKVMAENASEGESAQEELPCTFTGEEITIGFNAKFVEAALSHIETEQVSIEMSSPTTAVLFKPKYEERQDDLIILVMPVRINN,not soluble
9,MGSDKIHHHHHHMKIAQVCPRFYPHIGGVETHVYEIASRIAKKFDVEVLTTDPGGKLPKVEEIDGLTVRRFKSLAPSEAYYFSPELYDYLKKNSSDYDVVHAHNYHAFPALFAALTKGKNKLIFTPHYHGSGHSFFRNVLHKPYKIFGRKIFKRADAIVCVSNYEKNLVLKNFKVAEDRTYVIPNGINLDEFKDIEKIKRNKESWKKTILYVGRVEKYKGLDYVVKSLKHLPDNFTLEVVGKGSYKSKIVEMAKKLDVIDRIRFYQDLSRKELIDRYAKADVLVLLSKHEAYGIVVAEALAAKTPCIVANTSALSEWIDNKNVFGIDYPINVSELARLIERVSNVKAGDMKLLDWDDVNERLIRIYSAKI,not soluble
10,MGSDKIHHHHHHMKIAVLPGDGIGPEVVREALKVLEVVEKKTGKTFEKVFGHIGGDAIDRFGEPLPEETKKICLEADAIFLGSVGGPKWDDLPPEKRPEIGGLLALRKMLNLYANIRPIKVYRSLVHVSPLKEKVIGSGVDLVTVRELSYGVYYGQPRGLDEEKGFDTMIYDRKTVERIARTAFEIAKNRRKKVTSVDKANVLYSSMLWRKVVNEVAREYPDVELTHIYVDNAAMQLILKPSQFDVILTTNMFGDILSDESAALPGSLGLLPSASFGDKNLYEPAGGSAPDIAGKNIANPIAQILSLAMMLEHSFGMVEEARKIERAVELVIEEGYRTRDIAEDPEKAVSTSQMGDLICKKLEEIW,soluble
11,MGSDKIHHHHHHMKIAVVGAGLTGLKTAKELAEHAKVVVFEPDDVGGLVATFREFSIEKFYHHCFRDDAFLLEEIKRCGLKSKLVWKIAKTGFAANGKIYPLNTPFEILRYPLLTFGEKIRLARFTLKSRKLNYEDFDDVGVSEGIREELGEGLLERFFMPLLRSKFGENAEKVSYAWLLGRVAIRSNRKYSGEEIGYIRHGFQQLVDKMAEGLEIRRERARIRKNARWDVNGEDFDAVVYTAPLSELGELAEKLGIPEVRYQSSVCALIGAEETLTENIYWTNIADKMSFGAVIEHTNFMPFEDYGIHLMYLAAYSTPDGWLFNLSDKEIEKLFLSDLRKLGFKTESVRFVRVFKAKYSGPIYEKGYRRKITPYRVAEGFYVAGMTSRPNYPERSMNGSIRAGKEVAEQVKEDLL,not soluble
12,MGSDKIHHHHHHMKIDELIALAAEQPTRISRRSGVSRSTLKRVGDGTSEPTLSTLREVALALGLDIKVAAHHACDPFAAAAARTLIDASVPENPHNQEILAWLHRFERWNINDPLTLVSEAGTLQGITHRQDAQFVKLNPRGIAELPELFQQHKTKWALSGAAAATVIMGQIVLGNSIVWHEPAHDLDVSALGTIVDVAEDADLILLPATVTELVGSYTQDRLNFVAPVQLVIDLHSLHMFEEADYLTSGWR,not soluble
13,MGSDKIHHHHHHMKIGDKVRFLSEVGGGIVTGFKGKDFVLVEDADGFDIPMPIRECVVIEADDYNIKRKPAATAPKQEEPAKPAKPEMPVIQRQPEVRGGDTLNVFLAYVPEDAKAMMTTPFEAYLVNDSNYYLYYTYLSAEGKAWNNRSHGLVEPNTKLLLEEFTKDVLNEMERVAVQLIAFKDGKPAAIKPAVSVELRIDTVKFYKLHTFSASDFFEEPALIYDIVKDDVPAKQVYVSAEEIQSALLQKKFVDKPKSQPIMKPNHGQSGKNGIIEVDLHIDSLLDDTHGMSNSEILNYQLDKFREVIEANKEKREQKVVFIHGKGDGVLRKAIIDELKRKHSNYRYQDASFQEYGFGATMVTIK,not soluble
14,MGSDKIHHHHHHMKIGIVGLGRVGSSTAFALLMKGFAREMVLIDVDKKRAEGDALDLIHGTPFTRRANIYAGDYADLKGSDVVIVAAGVPQKPGETRLQLLGRNARVMKEIARNVSKYAPDSIVIVVTNPVDVLTYFFLKESGMDPRKVFGSGTVLDTARLRTLIAQHCGFSPRSVHVYVIGEHGDSEVPVWSGAMIGGIPLQNMCQICQKCDSKILENFAEKTKRAAYEIIERKGATHYAIALAVADIVESIFFDEKRVLTLSVYLEDYLGVKDLCISVPVTLGKHGVERILELNLNEEELEAFRKSASILKNAINEITAEENKHQNTSG,not soluble
15,MGSDKIHHHHHHMKIKAIITGATGMVGEGVMHECLLNPDVEEVLIINRKPSGFTHAKLKEIIHTDFFNLAPVEQQLAGYNACYFCLGVSSIGMNEADYTKMTYTLTMHVAETLSRLNKDMTFCYVSGASTDSTEKGKSMWARVKGKTENDLTRLPFKDVYNFRPGYMQPTPGLKNTQKYYTYMSWMYPFLKLVFKNYVSTLKDVGLAMIRVTLFGHNKQVLEVPDIKALAKKTQFV,not soluble
16,MGSDKIHHHHHHMKIKKYVAESIREAMIMIRRELGENAVILSSRRIKKGGFFGIGGKTYFEVTAAVEEERKKEENTSYRLQEILVKNRQSSNDNIKGEFDEIKRTINEIKQMLVTEKRQTLPEGLSKILYGMEKQEILPEIRYKLIDFLKMKFGDLDPNSNETFKILSEQFVNLVKTNAPDFKNAKVLFVGTTGVGKTTSLAKLAARFKIDEKKRVAILTLDTYRIAAAEQLKIYADIMDIPMKIAYTPKEAEYEMMALKDYDIVLVDTAGRSHQNDLQMSELRALSEAVKPNITFLVLSMNYKLDDMKRIVERFSAVKPTHIILTKMDETSVYGTFVNISEITGLPIAFVTNGQRVPDDIFEANPVELARIVAGEVLNHARSSGTSEKE,not soluble
17,MGSDKIHHHHHHMKILFLADEESKMYWEYFKKEDFKGIDIIVSCGDLNPSYLSFLTTMVGVPLLYVHGNHDDKYNVKPPEGCICIEDEIYEYEGVRFLGLGGSNRYKPGENQYTQKEMTKRVKKLWWKLKRKNGFDVLVTHSPAKGLHDGEDTCHTGFDVFNRLIEQYKPRYFVHGHVHMSYGRQFVRLDKVGETTVINAYEKYIVEI,not soluble
18,MGSDKIHHHHHHMKITTKQVGARMREARKKKKYTLRYLANKIGLSSGSTISNWELGLNLPNKRYLKKIAKACDTTVDWLLYGDFDRFVRQLLKENFQNKQLLKPPFFTQLMGRLSEEQLSYHDSLKIMIQAQKLQQSFYAFPLTVEAPSHSQESISIYEPTTAEEQSDQSYYHPFILSELHELFTHSQNPELDYSLIIAFLPLLKVDQLTEPQKEVLLAIFKRMNSFKDQTLLNEFFVELQYLL,not soluble
